Data: PMC4749977, “Alp7/TACC-Alp14/TOG generates long-lived, fast-growing MTs by an unconventional mechanism” (Scientific Reports, 2016)

B1: S. pombe single isoform (α1β) tubulin (complex)
chain 1: MREVISVHVGQAGVQIGNACWELYCLEHGIGPDGFPTENSEVHKNNSYLNDGFGTFFSETGQGKFVPRSIYVDLEPNVIDQVRTGPYKDLFHPEQMVTGKEDASNNYARGHYTVGKEMIDSVLERIRRMADNCSGLQGFLVFHSFGGGTGSGLGALLLERLNMEYGKKSNLQFSVYPAPQVSTSVVEPYNSVLTTHATLDNSDCTFMVDNEACYDICRRNLDIERPTYENLNRLIAQVVSSITASLRFAGSLNVDLNEFQTNLVPYPRIHFPLVTYSPIVSAAKAFHESNSVQEITNQCFEPYNQMVKCDPRTGRYMATCLLYRGDVIPRDVQAAVTSIKSRRTIQFVDWCPTGFKIGICYEPPQHVPGSGIAKVNRAVCMLSNTTSIAEAWSRLDHKFDLMYSKRAFVHWYVGEGMEEGEFSEAREDLAALERDYEEVGQDSMDNEMYEADEEY
chain 2: MREIVHIQAGQCGNQVGAAFWSTIADEHGLDSAGIYHGTSEAQHERLNVYFNEAAGGKYVPRAVLVDLEPGTMDAVKSGKFGNLFRPDNIIYGQSGAGNIWAKGHYTEGAELADAVLDVVRREAEACDALQGFQLTHSLGGGTGSGMGTLLLSKIREEYPDRMMATFSVAPAPKSSDTVVEPYNATLSMHQLVENSDETFCIDNEALSSIFANTLKIKSPSYDDLNHLVSAVMAGVTTSFRFPGELNSDLRKLAVNMVPFPRLHFFMVGFAPLAAIGSSSFQAVSVPELTQQMFDANNMMVAADPRHGRYLTVAALFRGKVSMKEVDEQIRSVQTKNSAYFVEWIPDNVLKAVCSVPPKDLKMSATFIGNSTSIQEIFRRLGDQFSAMFRRKAFLHWYTGEGMDEMEFTEAESNMNDLVSEYQQYQEAGIDEGDEDYEIEEEKEPLEY
notes: alpha-1 tubulin (α1) of S. pombe, from strain mmsp174 (atb2 replaced by nda2+); beta tubulin (β) of S. pombe, from strain mmsp174; Stands both as the free GTP-tubulin heterodimer and as the growing plus end of the microtubule polymerised from it; which of the two is meant is told in the assay's format and the quantity; also called GTP-tubulin; T (tubulin dimer); source: purified from S. pombe …
B2: Alp14 (full length, S. pombe TOG-family microtubule polymerase) (enzyme, UniProt O94534 1-809, looked up)
chain: MSQDQEEDYSKLPLESRIVHKVWKVRLSAYEECSKSFSLSADGSDNCFELWNNQSELWKSVLTDSNVAAQEAGTAAFVAYCRFSDPSHLLKAREISVLSISEKCLTSPRAGTRENALEALMLLVEADSAAPVIESIIPSLSARSPKVIASNVAAIASLVEQFGAKVIPSKMIIPHISNLFGHADKNVRKEASRLTVNIYRWTGDPLKDLLFKDLRPVQTKELESLFAELPTEPPKQTRFLKSQQPTSEPNVETQVEEQPALENEESEPEPSDDQFDLVEEVDVLPNVDPNLETLMASSKWKDRKEALDKLLPVLSQPKIKDNDFFNLVAILTKSVSKDANIMVVINAAHCIQAMAKGLRSNFSKYASTSINALLERSKEKKANVIESLSSAMDAVLATSSLDDLAELIASFAGNKNPQIKSSCFSLFSRSFSNMTSLPSKFTVDTCAKACVPGVSDTFEPVRSAAAEALGVLMKLVGERAINQYLSPLDDIRKSKIRSFYETATVKAKAPTKKSKVKPSKQEESKVVVPSNAKAVKKSVVPSSPVVPSPRKATNKSLSMDVSKGNAFENGPLLPRPTTRPVSRGLSRGTSSSLQQKVKASTPLNSGALNETVQNLKNMELDDPAPQPAKHSRVDRYEHPKVLEDNDSTISSLESLKRENEELREQLKVEHEENISMQKQLSELKGELNTLRSARKASPIGDRKPAFMRRANTDFLELSTSPSFQRSVREFEPTRPKLYSSIDVNQRSPLASAKTNGNFTFHAELPRSPFSSRANNINPDWTKAIDLAAKLKQKITEMKQTDQRHQGLIH
notes: Alp14, S. pombe, full length; gene PCR-amplified from wild type genomic S. pombe DNA; also called Alp14/TOG
B3: Alp14, full length, with a C-terminal his or Avi tag (natural protein, S. pombe, UniProt O94534 1-809, looked up)
chain: B2 chain
notes: Alp14, TOG-family microtubule polymerase of S. pombe, full length; gene PCR-amplified from wild-type genomic S. pombe DNA; also called Alp14/TOG; full length Alp14
B4: Alp7, full length, with an N-terminal avi-tag (natural protein, S. pombe, UniProt Q9URY2 1-474, looked up)
chain: MSDIVSSSTDYSRRSPSSSSIGTNETDHTGFHEKRQGASSESLIPPAQRSSEESMPAPKLFPKLTSKPNPQLNLKDTLNKRVSDRLQALELNKSFDFSGTPRPMHPISHPLSQHKTPEFKHRKRNVESILTPKNPSLFSSSNAASQRGSLNTAPSNFAYSHSSSLQTSASSRPPVLSNGSFPRQTNTAPLNPPVHLKDNIRNSATPSTSQADIPTQYPINSTQKQQAKYEAEIEGYKAKLAGTYHEISVLQNTIVNVSGQLIAVNDQLQQLRSGKASTSPSTKDTNMRLVEGHNEETLALQRGKYTQEEVDKLIQERMEKVAEDLHAQYSAKHTQKINAFKANYARKYEATIQELQNQIGTAPNAPKISNSNWEEERRALKADNQTLQKQLEKAIQERQDMSDFLNNFKADMAKSDKLLMQQQSQQTGDLETLRLQLQALQEELRVEREERQQLIQMSEDLVIAMDQLNLEQKS
modifications: biotin on the AviTag (BirA ligase co-expressed to ensure biotinylation)
notes: Alp7 (Mia1p), TACC-family protein of S. pombe, full length; gene PCR-amplified from wild-type genomic S. pombe DNA; also called Alp7/TACC; Mia1p; source: Sf9 insect cells (baculovirus, BirA ligase co-expressed), purified on monomeric avidin agarose

Experiments:
[1] = biological target: S. pombe dual-isoform (α1β + α2β) tubulin (S. pombe) (UniProt P04688); test: DIC video microscopy of microtubule growth; addition of GTP-tubulin to plus and minus ends of MTs nucleated by axoneme fragments; growth rate against tubulin concentration, linear regression, apparent rate constants; 100 mM K-PIPES, 1 mM MgSO4, 2 mM EGTA, 1 mM DTT pH 6.9, 1 mM GTP, no glycerol, 25 °C
[2] = biological target: the molecule itself; test: microtubule growth rates (VE-DIC video microscopy) against tubulin concentration, fit of a bimolecular reaction; GTP-tubulin dimer adding to and leaving the microtubule plus end; single isoform S. pombe tubulin in PEM at 25 °C, without Alp14; apparent rate constants per microtubule end in dimers
[3] = biological target: B1; test: microtubule growth rates (dark-field microscopy) with Alp14, fit of a kinetic model; Alp14-facilitated pathway T + M + E = TE + M = E + (M+1); Alp14 resident at the plus end of S. pombe α1β microtubules grown from GMPCPP seeds; 6 µM or 0.5 µM tubulin, nanomolar Alp14, PEM100, 25 °C; constants are parameters fitted to or constrained by the growth data, steady state assumed; details: both partners purified
[4] = biological target: B1; test: as above; details: both partners purified; remark: listed apart in the source
[5] = biological target: the molecule itself; test: glycerol gradient centrifugation; 5-40% glycerol gradient of purified Alp14, Alp7 and tubulin, alone or mixed; tubulin as GTP-tubulin where stated; fractions on SDS-PAGE with Coomassie staining

Molecule: S. pombe dual-isoform (α1β + α2β) tubulin (from UniProt P04688 1-455; P04689 1-449; P05219 1-448) (complex)
- Kd = koff/kon (critical concentration), minus end [1]: 1.9 µM
- Kd = koff/kon (critical concentration), plus end [1]: 2 µM
- koff, minus end [1]: 3.1 nm/s
- koff, plus end [1]: 9.3 nm/s
- kon, minus end (nm s^−1 μM^−1) [1]: 1.6
- kon, plus end (nm s^−1 μM^−1) [1]: 4.7

Molecule: B1
- koff [2]: 6.6 s⁻¹
- kon [2]: 5.5e+06 M⁻¹ s⁻¹

Molecule: B2
- Kd [3]: 6 nM
- koff [3]: 1 to 15 s⁻¹
- kon [3]: > 4e+07 M⁻¹ s⁻¹
- Kd [4]: > 5 nM

Molecule: B3
- binding result [5]: binds

Molecule: B4
- binding result [5]: binds
